From paper PMC11866011

What was measured:
[1] = biological target: EncA-157ST (Myxococcus xanthus encapsulin shell protein EncA with the SpyTag peptide inserted between residues 157 and 158) (Myxococcus xanthus | Streptococcus pyogenes) (UniProt Q1D6H4); experiment: negative-stain TEM; purified empty (unloaded) nanocompartments, 0.01-0.03 mg/mL, uranyl acetate 0.5% stain; subunit number read from the particle diameter
[2] = biological target: EncA-157ST (Myxococcus xanthus encapsulin shell protein EncA with the SpyTag peptide inserted between residues 157 and 158) (Myxococcus xanthus | Streptococcus pyogenes) (UniProt Q1D6H4); experiment: negative-stain TEM; purified nanocompartments loaded with sfGFP-CLP (coexpressed), 0.01-0.03 mg/mL, uranyl acetate 0.5% stain; subunit number read from the particle diameter
[3] = biological target: EncA-ST (Myxococcus xanthus encapsulin shell protein EncA with the SpyTag peptide fused to its C-terminus) (Myxococcus xanthus | Streptococcus pyogenes); experiment: negative-stain TEM; purified empty (unloaded) nanocompartments, 0.01-0.03 mg/mL, uranyl acetate 0.5% stain; subunit number read from the particle diameter
[4] = biological target: EncA-ST (Myxococcus xanthus encapsulin shell protein EncA with the SpyTag peptide fused to its C-terminus) (Myxococcus xanthus | Streptococcus pyogenes); experiment: negative-stain TEM; purified nanocompartments loaded with sfGFP-CLP (coexpressed), 0.01-0.03 mg/mL, uranyl acetate 0.5% stain; subunit number read from the particle diameter

Row | Substance | stoichiometry N [1] | stoichiometry N [2] | stoichiometry N [3] | stoichiometry N [4]
1 | EncA-157ST (Myxococcus xanthus encapsulin shell protein EncA with the SpyTag peptide inserted between residues 157 and 158) (from UniProt Q1D6H4 1-157; Q1D6H4 158-287) | 60 subunits | 180 subunits | – | –
2 | EncA-ST (Myxococcus xanthus encapsulin shell protein EncA with the SpyTag peptide fused to its C-terminus) | – | – | 60 subunits | 180 subunits
